System: PSA activatable agent A10 (compound A10)

## enzymatically active prostate specific antigen
  fluorescence activation (kinetic fluorescence readings, cleavage of the quenched peptide): Test agent (compound A10-0.5 µM final concentration of agent) was activated in the presence of active PSA (0.1 µM final concentration of activated enzyme)
